Source: paper PMC9270183 (The Journal of Experimental Medicine, 2022)
Positions count from the first letter of the chain named.

B1: V015 (antibody, V domains shown)
VH: EVQLVESGGGLVQPGGSLRLSCAASGFTFNSYWMSWVRQAPGKGLEWVANIKQDGSEKYYVDSVKGRFTISRDNAKNSLYLQMNSLRAEDTAVYYCARLPTYYSGFDYWGQGTLVTVSS
VL: NFMLTQPHSVSESPGKTVTISCTGSSGSIASNYVQWYQQRPGSAPTTVIYEDNQRPSGVPDRFSGSIDSSSNSASLTISGLKTEDEADYYCQSYDSTNRGVVFGGGTKLTVL
notes: IgG; donor BRA13; source: recombinant monoclonal IgG, produced and purified as previously described
B2: V050 (antibody, V domains shown)
VH: EVQLVESGGGLVKPGGSLRLSCAASGFSFSNAWMSWVRQAPGKGLEWVGRIKSKTDGGTTDYAAPVKGRFTISRDDSQNTLYLQMNSLKTEDTAVYYCITDRFRVHIRGYYGQGTLVTVSS
VL: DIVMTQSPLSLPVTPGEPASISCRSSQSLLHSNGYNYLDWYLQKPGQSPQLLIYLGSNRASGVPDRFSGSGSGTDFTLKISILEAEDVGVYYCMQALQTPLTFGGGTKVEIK
notes: IgG; donor BRA15; source: recombinant monoclonal IgG, produced and purified as previously described
B3: V057 (antibody, V domains shown)
VH: EVQLVESGGGLVQPGRSLRLSCAASGFTFGDYAMHWVRQAPGKGLEWVSGISWNSGIIGQADSVKGRFTISRDNAKNSLYLQMNSLRVEDTALYYCAKGGGESVEVPADEKLDYWGQGTLVTVSS
VL: QSVLTQPPSVSGAPGQRVTISCTGSSSNIGAGYDVHWYQQLPGTAPKLLIYGNNNRPSGVPDRFSGSKSGTSASLAITGLQAEDEADYYCQSYDSSLSGSWVFGGGTKLTVL
notes: as for B2
B4: V014 (antibody, V domains shown)
VH: EVQLVESGGGLVQPGGSLRLSCAASGFTFSSYDMHWVRQATGKGLEWVSAIGTAGDTYYPGSVKGRFTISRENAKNSLYLQMNSLRAGDTAVYYCARGVITMVRGVIRDYYYYGMDVWGQGTTVTVSS
VL: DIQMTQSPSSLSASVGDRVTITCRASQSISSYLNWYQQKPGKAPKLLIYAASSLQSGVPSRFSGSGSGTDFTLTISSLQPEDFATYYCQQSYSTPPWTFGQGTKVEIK
notes: as for B1
B5: V009 (antibody, V domains shown)
VH: EVQLVQSGAEVKKPGESLKISCKGSGYRFTSYWIGWVRQMPGKGLEWMGIIYAGDSDTRYSPSFQGQVTISVDKSISTAYLQWSSLKASDTAMYYCATTMTTGYFDYWGQGTLVTVSS
VL: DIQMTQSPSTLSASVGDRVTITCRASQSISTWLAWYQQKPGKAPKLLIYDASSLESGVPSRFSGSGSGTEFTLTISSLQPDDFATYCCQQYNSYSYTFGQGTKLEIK
notes: as for B1
B6: V054 (antibody, V domains shown)
VH: QVQLVESGGGVVQPGRSLRLSCAASGFPFSSFGMHWVRQAPGKGLEWVAVISSDGSNKYYADSVKGRFTISRDNSKNTLYLQMNSLRAEDTAVYYCAKEFTYVVVTALWGTENFDIWGQGTMVTVSS
VL: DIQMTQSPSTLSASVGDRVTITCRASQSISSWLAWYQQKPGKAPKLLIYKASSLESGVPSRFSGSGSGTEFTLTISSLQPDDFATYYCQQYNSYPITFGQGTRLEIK
notes: as for B2
B7: V007 (antibody, V domains shown)
VH: QVQLVQSGAEVKKPGSSVKVSCKASGDTFSTYTISWVRQAPGQGLEWMGRIIPILGVGNYAQKFQGRVTITADKSTSTAYMELSSLRSEDTAVYYCAHTTPPGDAFDIWGQGTMVTVSS
VL: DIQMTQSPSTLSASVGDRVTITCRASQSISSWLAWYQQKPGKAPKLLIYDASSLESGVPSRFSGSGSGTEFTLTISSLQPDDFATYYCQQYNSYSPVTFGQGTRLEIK
notes: as for B1
B8: V055 (antibody, V domains shown)
VH: QVQLVQSGAEVKKPGSSVKVSCKASGGTFSSYIINWVRQAPGQGLEWMGRIIPILGIANYAQKFHGRVTITADESTSTAYMELSSLRSEDTAVYYCARGGPDPSDSNYAALLYYYYMDVWGKGTTVTVSS
VL: QSVLTQPPSVSAAPGQKVTISCSGSSSNIGSYYVSWYQKLPGTAPKLLIHENNKRPSGIPDRISGSKSGTSATLGITGLQTGDEADYYCGTWDSSLSDVVFGGGTKLTVL
notes: as for B2
B9: V049 (antibody, V domains shown)
VH: QVQLVESGGGVVQPGRSLRLSCAASRFPFSNYGMHWVRQAPGKGLEWVAVISFDGNNKYYGDSVKGRLTISRDNSKNTLYLQVKSLRPEDTAVYYCAKDISTGLSLALFRSPDGEGMDVWGQGTTVTVSS
VL: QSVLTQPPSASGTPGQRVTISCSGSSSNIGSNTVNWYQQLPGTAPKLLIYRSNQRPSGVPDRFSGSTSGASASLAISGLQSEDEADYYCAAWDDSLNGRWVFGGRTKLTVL
notes: as for B2
B10: V051 (antibody, V domains shown)
VH: QVQLVESGGGVVQPGRSLRLSCEASGFTFSTYAMHWVRQAPGKGLEWVAVISYDGNNKYYADSVKGRLTVSRDNSKNTLYLQMNSLRAEDTAEYYCARDDGGYCSSLSCPMDVWGQGTTVTVSS
VL: SYELTQPPSVSVAPGKTARITCGGNSIGSKSVHWYQQRPGQAPVLVIYYDSDRPSGIPERFSGSNSGNTATLTISRVEAGDEADYYCQVWDSTLVFGGGTKLTVL
notes: as for B2
B11: V046 (antibody, V domains shown)
VH: EVQLVESGGGLVQPGRSLRLSCAASGFTFEDYAMHWVRQAPGKGLEWVSGVSWNSGTIGYADSVKGRFIISRDNAKNSLYLQMNSLRAEDTALYYCANLGPTYYDFSRPTPMDVWGKGTTVTVSS
VL: QSALTQPASVSGSPGQSITISCTGTSSDVGGYNYVSWYQQHPGKAPKLIIYDVSNRPSGVSNRFSGSKSGNTASLTISGLQAEDEADYYCSSYTSSSTWVFGGGTKLTVL
notes: as for B2
B12: V053 (antibody, V domains shown)
VH: QVQLVQSGAEVKKPGASVKVSCKASGYTFTSYYMHWVRQAPGQGLEWMGIINPSAGSTTYAQKFQGRVTMTSDTSTSTVYMELSSLKSEDTAVYYCARDFVLVPASYGMDVWGQGTTVTVSS
VL: QSVLTQPASVSGSPGQSITISCTGTSSDVGSYNLVSWFQQHPGKAPKLMIYQVSKRPSGASNRFSGSKSGNTASLTISGLQAEDEADYYCCSYAGSSTVWVFGGGTKLTVL
notes: as for B2
B13: V062 (antibody, V domains shown)
VH: QLQLQESGPGLVKPSETLSLTCTVSSGSISSSSYYWGWIRQPPGKGLEWIGSIYYSGSTYYNPSLKSRVTISVDTSKNQFSLKLSSVTAADTAVYYCARHWRENFAHAFDIWGQGTMVTVSS
VL: B12 VL with V3A, N33D, Q52E, S54T, A60V, A94V, V99Y
notes: as for B2
B14: V011 (antibody, V domains shown)
VH: QVQLVQSGAEVKKPGASVKVSCKASGYIFTSYDINWVRQATGQGLEWMGWMNPNSGNTGYAQKFQGRVTMTRNTSISTAYMELSSLRSEDTAVYYCARASSSLTYYFDYWGQGTLVTVSS
VL: SYELTQPPSVSVAPGKTARITCGENNIGSKSVHWYQQKPGQAPVLVVYDDSDRPSGIPERFSGSNSGNTATLTISRVEAGDEADYYCQVWDSSSDPVVFGGGTKLTVL
notes: as for B1
B15: V013 (antibody, V domains shown)
VH: QVQLVESGGGVVQPGRSLRLSCAGSGFIFSSFAMHWVRQAPGKGLEWVAVVSYDGDNKYYADSVKGRFTISRDNSKNTLYLQMDSLRPEDTAVYFCGRDEAALWIQRWYREIDFWGQGTLVTVSS
VL: QSVLTQPPSVSGTPGQRVTISCSGSSSNTGRNPVTWYQQFPGSAPKLLISRNNQRPSGVPDRFSGSKSGTSASLAISGLQSEDEADYYCAAWDDNLNGQVFGGGTKVTVL
notes: as for B1
B16: V056 (antibody, V domains shown)
VH: QVQLVESGGGVVQPGRSLRLSCAASGFPFSNYGMHWVRQAPGKGLEWVAVISYDGSNKYYADSVKGRFTISRDNSKNTLYLQMNSLRAEDTALYYCAKDSRPLPAAMSTYYYYGVDVWGQGTTVTVSS
VL: not shown
notes: as for B2
B17: V060 (antibody, V domains shown)
VH: B16 VH with Q39R, S56L, S85R, L93V, L103V, A105G, V115M
VL: not shown
notes: as for B2
B18: V010 (antibody, V domains shown)
VH: QVQLQESGPGLVKPSETLSLTCTVSGGSISSYYWSWIRQPPGKGLEWIGYIYYNGSTNYNPSLKSRVTISLDTSKNQFSLKLSSVTAADTAVYYCASDYYDSSGYYYGFDYWGQGTLVTVSS
VL: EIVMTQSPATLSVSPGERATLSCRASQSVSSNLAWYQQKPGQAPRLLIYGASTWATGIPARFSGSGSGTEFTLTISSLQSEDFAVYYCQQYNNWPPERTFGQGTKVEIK
notes: as for B1
B19: V004 (antibody, V domains shown)
VH: QVQLQESGPGLVKPSQTLSLTCTVSGGSISSGSYYWSWIRQPAGKGLEWIGRIYTSGSTNYNPSLKSRVTISVDTSKNQFSLKLSSVTAADTAVYYCARDTTDDYYVIWGQGTLVTVSS
VL: DIQMTQSPSTLSASVGDRVTITCRASQSIRSWLAWYQQKPGKAPKLLIYDASSLESGVPSRFSGSGSGTEFTLTISSLQPDDFATYYCQQYNTHFRTFGQGTKVEIK
notes: as for B1
B20: V063 (antibody, V domains shown)
VH: B6 VH with L108F
VL: B19 VL with R30S, K45N, D50K, S53A, T93S, H94Y, F95P, R96I, K103R, V104L
notes: as for B2
B21: V016 (antibody, V domains shown)
VH: QVQLVESGGGVVQPGRSLRLSCAASGFTFSNYGMHWVRQAPGKGLEWVAVISYDGSNKYYADSVKGRFTISRDNSKNTLYLQMNSVRVEDTAVYYCAKGSFGYSYVHTYFDYWGQGTLVTVSS
VL: B19 VL with R30S, T72I, T93S, H94P, F95M, R96Y, V104L
notes: as for B1
B22: V048 (antibody, V domains shown)
VH: QVQLVQSGAEVKKPGASVKVSCKASGYTFTSYVISWVRQAPGQGLEWMGWISAYNGNTNYAQKLQGRVTMTTDTSTSTAYMELRSLRSDDTAVYYCARDVAGITMIVEEVIDAFDIWGQGTMVTVSS
VL: SYELTQPSSVSVSPGQTARITCSGDVLAKKYARWFQQKPGQAPVLVIYKDSERPSGIPERFSGSSSGTTVTLTISGAQVEDEADYYCFSAPDNNRVFGGGTKLTVL
notes: as for B2
B23: V064 (antibody, V domains shown)
VH: EVQLVESGGGLVQPGGSLRLSCAASGLTVSRNYMRWVRQAPGKGLEWVSLIYSGGSTFYGDSVKGRFTISRDNSKNTLYLQMNSLRAEDTAVYYCARDLVRDGMDVWGQGTTVTVSS
VL: EIVMTQSPATLSVSPGERATLSCRASQSVSSNLAWYQQKPGQAPRLLIYGASTRATGIPARFSGSGSGTEFTLTISSLQSEDFAVYYCQQYNNWTFGQGTKVEIK
notes: as for B2
B24: V061 (antibody, V domains shown)
VH: QVQLVQSGAEVKKPGTSVKVSCKASGYTFKNYGISWVRQAPGQGLEWMGWISAHNGNTNYAQRVQGRVTMTTDTSTSTAYMELRSLRSEDTAVYYCGRESGVASHPGDLDYWGQGTLVTVSS
VL: SYELTQPPSVSVSPGQTARITCSGDALPRQYAYWYQQKPGQAPVLLIYKDSERPSGIPERFSGSSSGTTVTLTISGVQAEDEADYYCQSADSSVVFGGGAKLTVL
notes: as for B2
B25: V045 (antibody, V domains shown)
VH: QVQLVQSGAEVKKPGASVKVSCKASTYTFTSYYIHWVRQAPGQGLEWMGIINPSGGSTSYAQNFQGRVTMTRDTSTSTVYMELSSLRSEDTAVYYCARGVLIPAAGGDFDYWGQGTLVTVSS
VL: QSALTQPRSVSGSPGQSVTISCTGTSSDVGGYKYVSWYQQHPGKAPKLMIYDVSKRPSGVPDRFSGSKSGNTASLTISGLQAEDEADYYCCSYAGSYSWVFGGGTKLTVL
notes: as for B2

target: T1, 417N/484K/501Y RBD mutant (SARS-CoV-2, Wuhan-Hu-1 RBD backbone …, 417N | 484K | 501Y); assay: BLI; conditions: both partners purified
T1 construct: also called RBD KEN

Question: With B1 as the binder, how does the Kd read?
Answer: Its Kd is 14.3 nM.

Question: B2 was tested. Which Kd did it give?
Answer: Its Kd is 66.7 nM.

Question: For B3, which Kd is on record?
Answer: Its Kd is 22 nM.

Question: B4 was tested. Which Kd did it give?
Answer: The Kd was 27.3 nM.

Question: Which Kd does the source give for B5 here?
Answer: The Kd was 1.83 nM.

Question: B6 was tested. Which Kd did it give?
Answer: Its Kd is 15.6 nM.

Question: With B7 as the binder, how does the Kd read?
Answer: The Kd was 5.78 nM.

Question: How did the Kd turn out when B8 was run?
Answer: The Kd was 1.99 nM.

Question: How did the Kd turn out when B9 was run?
Answer: The Kd was 20.6 nM.

Question: With B10 as the binder, how does the Kd read?
Answer: The Kd was 7.05 nM.

Question: How did the Kd turn out when B11 was run?
Answer: Its Kd is 2.85 nM.

Question: How did the Kd turn out when B12 was run?
Answer: The Kd was 2.49 nM.

Question: With B13 as the binder, how does the Kd read?
Answer: Its Kd is 1.89 nM.

Question: How did the Kd turn out when B14 was run?
Answer: Its Kd is 6.96 nM.

Question: B15 was tested. Which Kd did it give?
Answer: The Kd was 166 nM.

Question: How did the Kd turn out when B16 was run?
Answer: The Kd was 7.58 nM.

Question: How did the Kd turn out when B17 was run?
Answer: The Kd was 4.79 nM.

Question: For B18, which Kd is on record?
Answer: Its Kd is 2.11 nM.

Question: For B19, which Kd is on record?
Answer: The Kd was 2.92 nM.

Question: For B20, which Kd is on record?
Answer: The Kd was 3.34 nM.

Question: B21 was tested. Which Kd did it give?
Answer: Its Kd is 4.43 nM.

Question: For B22, which Kd is on record?
Answer: The Kd was 6.26 nM.

Question: Which Kd does the source give for B23 here?
Answer: The Kd was 1.91 nM.

Question: With B24 as the binder, how does the Kd read?
Answer: The Kd was 10.3 nM.

Question: With B25 as the binder, how does the Kd read?
Answer: Its Kd is 2.79 nM.
